Measured values from the Human Domainome abundance scans (Beltran et al. 2025).

B1: Ankyrin-3, residues 4094 to 4171; numbered along this chain, Q12955 (parent)
chain: MAIVADHLGLSWTELARELNFSVDEINQIRVENPNSLISQSFMLLKKWVTRDGKNATTDALTSVLTKINRIDIVTLLE

Variants of: B1
Assay: abundance fitness (aPCA) (normalised: wild type 0, dead -1); higher = more abundant; growth selection in yeast, the domain comes from the species named
Details: Homo sapiens

Abundance fitness: each site, then its substitutions
N55: F -0.15, L -0.004, T -0.115, D 0.066, P -0.603, S -0.021, R -0.073, C -0.157, Y -0.041, W -0.135, M -0.047, E -0.079, H -0.058, G 0.057, Q 0.011, A 0.007, V -0.114
V74: N -0.777, G -0.651, M -0.749, R -0.827, S -0.656, E -0.888, L -0.399, Y -0.55, F -1.08, T -0.142, K -0.255, P -0.86, D -0.944
D72: L -0.718, G -0.878, C -0.958, M -0.738, W -0.894, A -0.739, V -0.644, P -0.396, S -0.855, E -0.567, R -0.784, Q -0.702
T57: E -0.859, P -0.896, G -0.387, N 0.079, M -0.394, K -0.739, I -0.779, L -0.798, F -0.39, Q -0.298, A -0.195, H -0.176, Y -0.14, D -0.108, V -0.124, R -0.548, W -0.931, S -0.117
A56: I -0.298, Y -0.353, R -0.506, V -0.037, T -0.517, G -0.613, M -0.526, L -0.433, H -0.296, N -0.53, C -0.271, K -0.175, S -0.517, F -0.304, W -0.458
K54: T -0.121, W -0.21, V 0.038, Y -0.147, R -0.064, S 0.049
V64: K -0.333, T -0.087, N -0.236, R -0.298, Y -0.166, W -0.644, A -0.081, C 0.05, S -0.06, L 0.111, M 0.064, F 0.111, Q 0.064, P 0.037, G -0.05, H 0.132, E 0.001, D -0.858
T62: Q -0.201, K 0.097, Y -0.12, V -0.057, R 0.068, H -0.297, F -0.175, P -0.102, G -0.201, I -0.386, W -0.434, L -0.045, A 0.039, M 0.06, N -0.44, C -0.292, E -0.297
K67: C -0.436, N -0.48, V -0.276, S -0.285, L -0.641, A -0.135, G -0.525, W -0.667, R -0.091, Q -0.056, T -0.228, H -0.247, P -0.646
L65: C -0.505, Y -0.737, D 0.076, I -0.847, S -0.884, Q -1.05, F -0.752, G -0.825, V -0.779, M -0.651, A -1.14, P -0.701, N -0.426, R -0.902, K -0.528, E -0.824, H -0.973, W -0.901
T75: E 0.079, H -0.219, N 0.06, I -0.182, F -0.236, D -0.155, L 0.006, R -0.002, W -0.189, V -0.112, M -0.026, C -0.081, Q 0.026, S -0.004
S63: R -0.004, C -0.11, F -0.153, E -0.075, K 0.002, I -0.287, T 0.023, N -0.106, V -0.061, G -0.031, D 0.054, P -0.137, Q -0.012, M -0.046, A -0.014, H -0.051, W -0.405, Y -0.003
N69: Q -0.061, D -0.178, G 0.073, A -0.339, V -0.928, R -0.224, P -0.811, C -0.549, E -0.032, L -0.679, W -1.01, S -0.29, M -0.61, K -0.104, H -0.308, Y -0.699
I73: V -0.276, L -0.148, C -0.695, G -0.977, S -0.849, P -0.858, W -0.793, A -0.631, M -0.503, E -0.989, Y -0.938, H -0.715, N -0.597
T66: F -0.052, L -0.102, H -0.013, I -0.088, A -0.14, R -0.07, M -0.054, N -0.112, S -0.173, Q 0.118, K -0.1, P -0.535, E -0.182, G -0.126, W -0.173, C -0.21, V 0.018
L61: F -0.823, A -0.732, P -0.921, I -0.355, S -0.665, M -0.223, T -1.05, R -0.412, G -0.954
I71: T -0.016, D 0.307, C -0.167, V 0.015, S -0.048, H -0.198, E -0.066, P -0.046, G 0.085, F 0.066, N -0.155, A -0.075, R -0.036, M 0.039, L 0.081, W -0.029, Q 0.136, K 0.057, Y 0.082
D59: S -0.118, E -0.103, A -0.032, R -0.072, L -0.133, G -0.011, H -0.058, Q 0.052, W -0.201, M 0.022, N -0.228, Y -0.253, F -0.565, C -0.036, V -0.117, P -0.058, K 0.052
L76: C -0.045, D -0.351, E -0.185, A 0.08
A60: L -0.074, F -0.086, K -0.083, P -0.993, S -0.134, Q -0.021, V -0.019, W -0.458, T -0.283, R -0.081, D -0.627, C -0.09, Y -0.417, N 0.219, E 0.061, I -0.28, G -0.233
T58: A -0.051, I 0.09, H 0.001, R -0.067, L -0.002, Q 0.034, V 0.05, F -0.112, D 0.086, G -0.104, W -0.123, K 0.016, E -0.113, M 0.173, S 0.106, N -0.168, P -0.195
R70: D -0.753, V -0.876, K -0.393, L -0.82, A -0.918, G -1, P -0.74, Q -0.908, W -0.795, C -0.817, M -0.774
I68: C -0.402, T -0.987, W -0.878, Q -0.806, S -0.935, F -0.963, R -0.965, K -0.606, A -0.868, V -0.284, M -0.244, P -0.37, E -0.964, L -0.219, G -0.916
